Literature values in patent US20020192216A1, “Therapeutic use” (priority 1999, published 2002).

Tested on: all three mammalian Hedgehog proteins
Settings: compared with Ptc

B1: HIP: membrane glycoprotein that binds Hedgehog proteins and attenuates Hedgehog signalling; GenBank AF116865 (protein, UniProt Q7TN16 18-700, looked up)
Hedgehog-interacting protein: FFEGDAKFGERNEGSGARRRRCLNGNPPKRLKRRDRRVMSQLELLSGGEILCGGFYPRVSCCLQSDSPGLGRLENKIFSATNNSECSRLLEEIQCAPCSPHSQSLFYTPERDVLDGDLALPLLCKDYCKEFFYTCRGHIPGLLQTTADEFCFYYARKDAGLCFPDFPRKQVRGPASNYLGQMEDYEKVGGISRKHKHNCLCVQEVMSGLRQPVSAVHSGDGSHRLFILEKEGYVKILTPEGELFKEPYLDIHKLVQSGIKGGDERGLLSLAFHPNYKKNGKLYVSYTTNQERWAIGPHDHILRVVEYTVSRKNPHQVDVRTARVFLEVAELHRKHLGGQLLFGPDGFLYIILGDGMITLDDMEEMDGLSDFTGSVLRLDVDTDMCNVPYSIPRSNPHFNSTNQPPEVFAHGLHDPGRCAVDRHPTDININLTILCSDSNGKNRSSARILQIIKGRDYESEPSLLEFKPFSNGPLVGGFVYRGCQSERLYGSYVFGDRNGNFLTLQQSPVTKQWQEKPLCLGASSSCRGYFSGHILGFGEDELGEVYILSSSKSMTQTHNGKLYKIVDPKRPLMPEECRVTVQPAQPLTSDCSRLCRNGYYTPTGKCCCSPGWEGDFCRIAKCEPACRHGGVCVRPNKCLCKKGYLGPQCEQVDRNVRRVTRAGILDQIIDMTSYLLDLTSYIV
affinity for Hedgehog proteins: comparable to that of Ptc
